We go through three molecules from patent publication US20260347441 (published 2026).

Test [1] concerns the target polatuzumab vedotin (humanized). The experiment in a line: SPR. For orientation: SPR reads the build-up and loss of mass on a sensor chip optically.
In test [2] the target is human serum albumin (human, UniProt P02768). The experiment in a line: SPR.

polatuzumab vedotin (humanized), sequence (VH, as listed by the source, chain 1 of 2): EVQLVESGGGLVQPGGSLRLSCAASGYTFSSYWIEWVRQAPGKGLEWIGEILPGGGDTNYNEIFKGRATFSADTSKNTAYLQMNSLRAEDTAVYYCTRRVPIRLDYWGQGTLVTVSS
polatuzumab vedotin (humanized), sequence (VL, as listed by the source, chain 2 of 2): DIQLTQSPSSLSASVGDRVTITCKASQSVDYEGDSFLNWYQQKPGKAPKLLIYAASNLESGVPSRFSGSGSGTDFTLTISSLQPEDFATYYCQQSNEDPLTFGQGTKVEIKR

B1: ABC3315 (antibody, V domains shown)
VH: EVQLVESGGGLVKPGGSLKLSCAASGFTFSGYAMSWFRQAPEKRLEWVATISSGGSYTYYLDSVKGRFTISRDNSKNTLYLQMSSLRSEDTAVYYCLASLITTDYFEYWGQGTLVTVSS
VL: DIVMTQSPSSLSASVGDRVTITCRASQDVGTAVAWYQQKPGQSPKLLIYWASTRHTGVPDRFSGSGSGTDFTLTISGLQSEDEADYFCQQYSNYPYTFGGGTKLEIKR
modifications: peg12-biotin conjugated, immobilized on streptavidin; vc-MMAE conjugate (ADC)
In the case of B1, in test [1], the binding result is on record as “no binding”.

B2: ABC3315-WEDD (antibody, V domains shown)
VH: B1 VH
VL: B1 VL
For orientation: Kd means a measure of binding affinity in units of concentration. Higher therefore signals a looser complex. B2 had a Kd in test [2] of 2.34 µM.

B3: ABC3315-WE (antibody, V domains shown)
VH: B1 VH
VL: B1 VL
Take B3: the Kd in test [2] was determined as 10.5 µM.
